Measurements published in patent US20130109737A1 (published 2013).
One block for each binder: values may come before it.

B2: Med23 (other, mouse (murine ES cells), UniProt Q80YQ2 1-1367, looked up)
chain: METQLQSIFEEVVKTEIIEEAFPGMFMDTPEDEKTKLISCLAAFRQFWSGLSQESHEQCVQWIVKFIHGQHSPKRISFLYDCLAMAVETGLLPPRMVCESLINSDSLEWERTQLWALTFKLVRKIIGGVDYKGVRDLLKAILEKILTIPNTVSSAVVQQLLAAREVIAYILERNACLLPAYFAVTEIRKLYPEGKLPHWLLGNLVSDFVDTFRPTARINSICGRCSLLPVVNNSGAICNSWKLDPATLRFPLKGLLPYDKDLFEPQTALLRYVLEQPYSRDMVCNMLGLNKQHKQRCPVLEDQLVDLVVYAMERSETEEKFDDGGTSQLLWQHLSSQLIFFVLFQFASFPHMVLSLHQKLAGRGLIKGRDHLMWVLLQFISGSIQKNALADFLPVMKLFDLLYPEKECIPVPDINKPQSTHAFAMTCIWIHLNRKAQNGDSTLQIPIPHSLKLHHEFLQQSLRNKSLQMNDYKIALLCNAYSTNSECFTLPMGALVETIYGNGIMRVPLPGTSCLASASVTPLPMNLLDSLTVHAKMSLIHSIATRVIKLAHTKSSVALAPALVETYSRLLVYMEIESLGIKGFISQLLPTVFKSHAWGILHTLLEMFSHRMHHIQPHYRVQLLSHLHTLAAVAQTNQNQLHLCVESTALRLITALGSSEVQPQFTRFLNDPKTVLSAESEELNRALILTLARATHVTDFFTGSDSIQGTWCKDILQTIMNFTPHNWASHTLSCFPAPLQAFFKQNNVPQESRFNLKKNVEEEYRKWKSMTDENEIITQFSVQGFPPLFLCLLWKMLLETDHISQIGYKVLERIGARALVAHVRTFADFLVYEFSTSAGGQQLNKCIEILNDMVWKYNIVTLDRLILCLAMRSHEGNEAQVCYFIIQLLLLKPNDFRNRVSDFVKENSPEHWLQSDWHTKHMSYHKKYPEKLYFEGLAEQVDPPVPIQSPYLPIYFGNVCLRFLPVFDIVIHRFLELLPVSKSLETLLDHLGGLYKFHDRPVTYLYNTLHYYEMCLRNRDHLKRKLVHAIIGSLKDNRPQGWCLSDTYLKHAMNAREDNPWVPEDSYYCKLIGRLVDTMAGKSPGPFPNCDWRFNEFPNPAAHALHVTCVELMALAVPGKDVGNALLNVVLKSQPLVPRENITAWMNAIGLIITALPEPYWIVLHDRIVNVISSSSLTSETEWVGYPFRLFDFTACHQSYSEMSCSYTLALAHAVWHHSSIGQLSLIPKFLTEALLPVVKTEFQLLYVYHLVGPFLQRFQQERTRCMIEIGVAFYDMLLNVDQCSTHLNYMDPICDFLYHMKYMFTGDSVKEQVEKIICNLKPALKLRLRFITHISKMEPAVPPQALNSGSPAPQSNQVPASLPVTQ
notes: Endogenous protein in crosslinked chromatin or nuclear extract of V6.5 murine ES cells; also called mediator subunit Med23

Assays:
[1] = target: B2; experiment: ChIP-western: IP of crosslinked, sheared murine ES cell chromatin with anti-Smc3, western blot for Med23
Source text: (§1) FIG. 3 Mediator and cohesin interact. a, Mediator (Med23) is detected by western blot (WB) when crosslinked, sheared chromatin is subjected to immunoprecipitation with antibodies against mediator (Med1, Med12) or cohesin (Smc1a, Smc3). WCE, whole-cell extract. b, Cohesin (Smc1a, Smc3) and mediator (Med23) are detected by western blot after immunoprecipitation of uncrosslinked ES cell nuclear extracts (NE) with a Nipb1 antibody. c, Cohesin (Smc3) and Nipb1 co-purify with mediator. The input fractions and immunoprecipitated eluate (IP Eluate) were examined by western blot and silver staining. Molecular weight (MW) markers (kDa) are shown.
(§2) For ChIP-Western, same conditions as for ChIP-Seq were used. For co-immunoprecipitation, murine ES cells were harvested in cold PBS and extracted for 30 min at 4° C. in TNEN250 (50 mM Tris pH 7.5, 5 mM EDTA, 250 mM NaCl, 0.1% NP-40) with protease inhibitors. After centrifugation, supernatant was mixed to 2 volumes of TNENG (50 mM Tris pH 7.5, 5 mM EDTA, 100 mM NaCl, 0.1% NP-40, 10% glycerol).

[2] = target: T1, Med1 (mouse (murine ES cells), UniProt Q925J9 1-1575); experiment: ChIP-western: IP of crosslinked, sheared murine ES cell chromatin with anti-Med1, western blot for Med23
T1 construct: Endogenous protein immunoprecipitated from crosslinked murine ES cell chromatin; also called CRSP1/TRAP220; mediator subunit Med1
Source text: as §1, §2

[3] = target: T2, Med12 (mouse (murine ES cells), UniProt A2AGH6 1-2190); experiment: ChIP-western: IP of crosslinked, sheared murine ES cell chromatin with anti-Med12, western blot for Med23
T2 construct: Endogenous protein immunoprecipitated from crosslinked murine ES cell chromatin; also called mediator subunit Med12
Source text: as §1, §2

[4] = target: B2; experiment: ChIP-western: IP of crosslinked, sheared murine ES cell chromatin with anti-Smc1a, western blot for Med23
Source text: as §1, §2

T1 sequence (Q925J9 whole entry): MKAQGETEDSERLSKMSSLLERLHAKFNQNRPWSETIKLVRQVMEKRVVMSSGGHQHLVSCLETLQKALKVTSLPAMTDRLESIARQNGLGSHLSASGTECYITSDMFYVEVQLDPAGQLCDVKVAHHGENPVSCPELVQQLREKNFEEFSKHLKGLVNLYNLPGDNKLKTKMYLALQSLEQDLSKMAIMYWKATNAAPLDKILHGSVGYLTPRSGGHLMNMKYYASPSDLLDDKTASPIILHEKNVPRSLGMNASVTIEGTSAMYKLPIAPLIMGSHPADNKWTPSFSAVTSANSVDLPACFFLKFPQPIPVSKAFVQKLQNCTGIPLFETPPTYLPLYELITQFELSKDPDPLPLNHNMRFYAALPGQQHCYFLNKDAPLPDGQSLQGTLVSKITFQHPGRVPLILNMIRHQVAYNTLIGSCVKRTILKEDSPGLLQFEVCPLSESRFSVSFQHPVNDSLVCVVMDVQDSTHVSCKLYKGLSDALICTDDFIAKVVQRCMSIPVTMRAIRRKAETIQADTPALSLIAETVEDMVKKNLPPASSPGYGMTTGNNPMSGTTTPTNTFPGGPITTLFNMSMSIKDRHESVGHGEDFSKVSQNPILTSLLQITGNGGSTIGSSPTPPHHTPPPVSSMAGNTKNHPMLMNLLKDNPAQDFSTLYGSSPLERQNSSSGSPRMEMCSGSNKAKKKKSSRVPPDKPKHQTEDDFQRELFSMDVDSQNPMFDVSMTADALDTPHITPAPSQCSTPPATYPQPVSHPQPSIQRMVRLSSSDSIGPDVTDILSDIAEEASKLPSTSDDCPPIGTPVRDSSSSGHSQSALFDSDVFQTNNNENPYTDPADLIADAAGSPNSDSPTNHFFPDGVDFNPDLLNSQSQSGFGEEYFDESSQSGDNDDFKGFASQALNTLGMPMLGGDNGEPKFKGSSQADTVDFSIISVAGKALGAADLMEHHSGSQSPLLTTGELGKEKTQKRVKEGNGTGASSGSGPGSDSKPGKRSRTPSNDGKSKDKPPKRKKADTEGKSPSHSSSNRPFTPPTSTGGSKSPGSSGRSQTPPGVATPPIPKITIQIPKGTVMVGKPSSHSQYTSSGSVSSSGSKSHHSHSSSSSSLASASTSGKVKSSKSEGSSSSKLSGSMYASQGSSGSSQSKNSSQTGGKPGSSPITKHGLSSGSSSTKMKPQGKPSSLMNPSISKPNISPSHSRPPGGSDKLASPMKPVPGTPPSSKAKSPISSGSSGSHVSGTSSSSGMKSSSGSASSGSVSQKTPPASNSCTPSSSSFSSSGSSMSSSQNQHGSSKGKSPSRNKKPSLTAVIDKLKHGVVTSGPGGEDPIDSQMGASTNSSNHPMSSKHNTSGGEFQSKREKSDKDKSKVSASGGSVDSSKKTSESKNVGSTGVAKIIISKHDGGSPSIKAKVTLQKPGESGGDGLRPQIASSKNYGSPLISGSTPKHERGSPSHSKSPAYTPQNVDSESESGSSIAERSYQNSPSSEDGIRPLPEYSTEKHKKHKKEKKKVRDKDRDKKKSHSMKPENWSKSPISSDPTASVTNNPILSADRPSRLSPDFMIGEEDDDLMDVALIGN
T2 sequence (A2AGH6 whole entry): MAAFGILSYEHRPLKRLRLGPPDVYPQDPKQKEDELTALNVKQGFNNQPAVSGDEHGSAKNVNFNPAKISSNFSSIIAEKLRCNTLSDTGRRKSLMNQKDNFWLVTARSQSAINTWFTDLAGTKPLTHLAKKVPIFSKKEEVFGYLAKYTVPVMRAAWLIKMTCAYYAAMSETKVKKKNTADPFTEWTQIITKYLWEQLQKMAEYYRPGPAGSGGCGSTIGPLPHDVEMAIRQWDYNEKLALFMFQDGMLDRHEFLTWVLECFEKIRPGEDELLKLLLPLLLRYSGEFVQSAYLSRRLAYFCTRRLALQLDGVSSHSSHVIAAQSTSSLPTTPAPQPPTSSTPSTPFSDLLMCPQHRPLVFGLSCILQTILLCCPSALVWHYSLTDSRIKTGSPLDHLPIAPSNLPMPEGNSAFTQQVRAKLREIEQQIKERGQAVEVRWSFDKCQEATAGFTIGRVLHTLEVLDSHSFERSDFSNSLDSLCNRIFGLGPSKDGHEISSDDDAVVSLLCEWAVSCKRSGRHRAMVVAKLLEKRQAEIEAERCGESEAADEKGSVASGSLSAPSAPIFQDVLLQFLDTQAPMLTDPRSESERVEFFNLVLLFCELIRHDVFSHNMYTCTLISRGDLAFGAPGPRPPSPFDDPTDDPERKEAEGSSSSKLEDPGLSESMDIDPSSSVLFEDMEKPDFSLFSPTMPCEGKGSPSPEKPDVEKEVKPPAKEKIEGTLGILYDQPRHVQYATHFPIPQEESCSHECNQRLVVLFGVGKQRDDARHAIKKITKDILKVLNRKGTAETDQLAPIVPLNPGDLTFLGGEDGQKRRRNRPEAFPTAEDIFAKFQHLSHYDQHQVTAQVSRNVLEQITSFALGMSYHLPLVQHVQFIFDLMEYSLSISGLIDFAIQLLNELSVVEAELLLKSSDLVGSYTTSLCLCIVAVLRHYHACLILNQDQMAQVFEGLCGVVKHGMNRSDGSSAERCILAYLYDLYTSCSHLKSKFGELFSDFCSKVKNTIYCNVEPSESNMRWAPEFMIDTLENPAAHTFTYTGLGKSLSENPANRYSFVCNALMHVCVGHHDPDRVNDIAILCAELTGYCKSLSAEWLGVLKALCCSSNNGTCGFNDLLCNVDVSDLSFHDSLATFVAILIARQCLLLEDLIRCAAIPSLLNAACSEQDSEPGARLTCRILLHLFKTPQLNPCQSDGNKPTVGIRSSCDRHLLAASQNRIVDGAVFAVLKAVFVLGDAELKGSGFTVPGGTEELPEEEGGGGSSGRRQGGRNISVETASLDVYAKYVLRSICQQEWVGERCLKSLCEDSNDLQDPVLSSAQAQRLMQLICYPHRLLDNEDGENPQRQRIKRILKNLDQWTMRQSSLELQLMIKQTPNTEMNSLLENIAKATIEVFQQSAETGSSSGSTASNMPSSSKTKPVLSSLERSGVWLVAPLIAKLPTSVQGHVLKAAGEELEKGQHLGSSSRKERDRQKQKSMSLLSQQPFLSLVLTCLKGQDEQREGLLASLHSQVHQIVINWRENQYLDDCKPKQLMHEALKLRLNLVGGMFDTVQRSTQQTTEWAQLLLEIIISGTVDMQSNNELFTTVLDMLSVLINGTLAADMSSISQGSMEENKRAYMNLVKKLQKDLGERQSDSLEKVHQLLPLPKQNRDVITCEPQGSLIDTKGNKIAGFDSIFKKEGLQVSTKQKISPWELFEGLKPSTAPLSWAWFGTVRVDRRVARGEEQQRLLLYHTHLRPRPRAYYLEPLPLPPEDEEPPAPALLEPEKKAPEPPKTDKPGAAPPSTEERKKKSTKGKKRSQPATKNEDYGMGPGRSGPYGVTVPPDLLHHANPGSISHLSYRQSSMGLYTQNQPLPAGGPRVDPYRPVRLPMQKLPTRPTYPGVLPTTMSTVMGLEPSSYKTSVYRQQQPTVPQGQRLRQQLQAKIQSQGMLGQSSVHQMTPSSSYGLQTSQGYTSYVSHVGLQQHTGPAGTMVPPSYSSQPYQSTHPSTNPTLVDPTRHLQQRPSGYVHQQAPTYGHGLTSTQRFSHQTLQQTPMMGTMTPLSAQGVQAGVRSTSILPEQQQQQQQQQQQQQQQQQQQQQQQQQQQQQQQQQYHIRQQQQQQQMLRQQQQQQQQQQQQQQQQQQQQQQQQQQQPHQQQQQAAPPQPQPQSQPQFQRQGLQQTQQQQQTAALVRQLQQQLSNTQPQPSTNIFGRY

binding result [1]: binds
B1: Smc3 (other, mouse (murine ES cells), UniProt Q9CW03 1-1217, looked up)
chain: MYIKQVIIQGFRSYRDQTIVDPFSSKHNVIVGRNGSGKSNFFYAIQFVLSDEFSHLRPEQRLALLHEGTGPRVISAFVEIIFDNSDNRLPIDKEEVSLRRVIGAKKDQYFLDKKMVTKNDVMNLLESAGFSRSNPYYIVKQGKINQMATAPDSQRLKLLREVAGTRVYDERKEESISLMKETEGKREKINELLKYIEERLHTLEEEKEELAQYQKWDKMRRALEYTIYNQELNETRAKLDELSAKRETSGEKSRQLRDAQQDARDKMEDIERQVRELKTKISAMKEEKEQLSAERQEQIKQRTKLELKAKDLQDELAGNSEQRKRLLKERQKLLEKIEEKQKELAETEPKFNSVKEKEERGIARLAQATQERTDLYAKQGRGSQFTSKEERDKWIKKELKSLDQAINDKKRQIAAIHKDLEDTEANKEKNLEQYNKLDQDLNEVKARVEELDRKYYEVKNKKDELQSERNYLWREENAEQQALAAKREDLEKKQQLLRAATGKAILNGIDSINKVLEHFRRKGINQHVQNGYHGIVMNNFECEPAFYTCVEVTAGNRLFYHIVDSDEVSTKILMEFNKMNLPGEVTFLPLNKLDVRDTAYPETNDAIPMISKLRYNPRFDKAFKHVFGKTLICRSMEVSTQLARAFTMDCITLEGDQVSHRGALTGGYYDTRKSRLELQKDVRKAEEELGELEAKLNENLRRNIERINNEIDQLMNQMQQIETQQRKFKASRDSILSEMKMLKEKRQQSEKTFMPKQRSLQSLEASLHAMESTRESLKAELGTDLLSQLSLEDQKRVDALNDEIRQLQQENRQLLNERIKLEGIITRVETYLNENLRKRLDQVEQELNELRETEGGTVLTATTSELEAINKRVKDTMARSEDLDNSIDKTEAGIKELQKSMERWKNMEKEHMDAINHDTKELEKMTNRQGMLLKKKEECMKKIRELGSLPQEAFEKYQTLSLKQLFRKLEQCNTELKKYSHVNKKALDQFVNFSEQKEKLIKRQEELDRGYKSIMELMNVLELRKYEAIQLTFKQVSKNFSEVFQKLVPGGKATLVMKKGDVEGSQSQDEGEGSGESERGSGSQSSVPSVDQFTGVGIRVSFTGKQGEMREMQQLSGGQKSLVALALIFAIQKCDPAPFYLFDEIDQALDAQHRKAVSDMIMELAVHAQFITTTFRPELLESADKFYGVKFRNKVSHIDVITAEMAKDFVEDDTTHG
notes: Endogenous protein of murine ES cells; also called cohesin core complex protein Smc3

Binder: B2
binding result [2]: binds
binding result [3]: binds

binding result [4]: binds
B3: Smc1a (other, mouse (murine ES cells), UniProt Q9CU62 1-1233, looked up)
chain: MGFLKLIEIENFKSYKGRQIIGPFQRFTAIIGPNGSGKSNLMDAISFVLGEKTSNLRVKTLRDLIHGAPVGKPAANRAFVSMVYSEEGAEDRTFARVIVGGSSEYKINNKVVQLHEYSEELEKLGILIKARNFLVFQGAVESIAMKNPKERTALFEEISRSGELAQEYDKRKKEMVKAEEDTQFNYHRKKNIAAERKEAKQEKEEADRYQRLKDEVVRAQVQLQLFKLYHNEVEIEKLNKELASKNKEIEKDKKRMDKVEDELKEKKKELGKMMREQQQIEKEIKEKDSELNQKRPQYIKAKENTSHKIKKLEAAKKSLQNAQKHYKKRKGDMDELEKEMLSVEKARQEFEERMEEESQSQGRDLTLEENQVKKYHRLKEEASKRAATLAQELEKFNRDQKADQDRLDLEERKKVETEAKIKQKLREIEENQKRIEKLEEYITTSKQSLEEQKKLEGELTEEVEMAKRRIDEINKELNQVMEQLGDARIDRQESSRQQRKAEIMESIKRLYPGSVYGRLIDLCQPTQKKYQIAVTKVLGKNMDAIIVDSEKTGRDCIQYIKEQRGEPETFLPLDYLEVKPTDEKLRELKGAKLVIDVIRYEPPHIKKALQYACGNALVCDNVEDARRIAFGGHQRHKTVALDGTLFQKSGVISGGASDLKAKARRWDEKAVDKLKEKKERLTEELKEQMKAKRKEAELRQVQSQAHGLQMRLKYSQSDLEQTKTRHLALNLQEKSKLESELANFGPRINDIKRIIQSREREMKDLKEKMNQVEDEVFEEFCREIGVRNIREFEEEKVKRQNEIAKKRLEFENQKTRLGIQLDFEKNQLKEDQDKVHMWEQTVKKDENEIEKLKKEEQRHMKIIDETMAQLQDLKNQHLAKKSEVNDKNHEMEEIRKKLGGANKEMTHLQKEVTAIETKLEQKRSDRHNLLQACKMQDIKLPLSKGTMDDISQEEGSSQGEESVSGSQRTSSIYAREALIEIDYGDLCEDLKDAQAEEEIKQEMNTLQQKLNEQQSVLQRIAAPNMKAMEKLESVRDKFQETSDEFEAARKRAKKAKQAFEQIKKERFDRFNACFESVATNIDEIYKALSRNSSAQAFLGPENPEEPYLDGINYNCVAPGKRFRPMDNLSGGEKTVAALALLFAIHSYKPAPFFVLDEIDAALDNTNIGKVANYIKEQSTCNFQAIVISLKEEFYTKAESLIGVYPEQGDCVISKVLTFDLTKYPDANPNPNEQ
notes: Endogenous protein of murine ES cells; also called cohesin core complex protein Smc1a
